Data: US20200164038A1, “MODIFIED NUCLEOSIDE, NUCLEOTIDE, AND NUCLEIC ACID COMPOSITIONS” (ModernaTX, Inc., priority 2011, published 2020)

B1: G-CSF unmodified: unmodified G-CSF mRNA SEQ ID NO 6, Cap1 (nucleic acid, listed as Homo sapiens)
chain: GGGAAAUAAGAGAGAAAAGAAGAGUAAGAAGAAAUAUAAGAGCCACCAUGGCCGGUCCCGCGACCCAAAGCCCCAUGAAACUUAUGGCCCUGCAGUUGCUGCUUUGGCACUCGGCCCUCUGGACAGUCCAAGAAGCGACUCCUCUCGGACCUGCCUCAUCGUUGCCGCAGUCAUUCCUUUUGAAGUGUCUGGAGCAGGUGCGAAAGAUUCAGGGCGAUGGAGCCGCACUCCAAGAGAAGCUCUGCGCGACAUACAAACUUUGCCAUCCCGAGGAGCUCGUACUGCUCGGGCACAGCUUGGGGAUUCCCUGGGCUCCUCUCUCGUCCUGUCCGUCGCAGGCUUUGCAGUUGGCAGGGUGCCUUUCCCAGCUCCACUCCGGUUUGUUCUUGUAUCAGGGACUGCUGCAAGCCCUUGAGGGAAUCUCGCCAGAAUUGGGCCCGACGCUGGACACGUUGCAGCUCGACGUGGCGGAUUUCGCAACAACCAUCUGGCAGCAGAUGGAGGAACUGGGGAUGGCACCCGCGCUGCAGCCCACGCAGGGGGCAAUGCCGGCCUUUGCGUCCGCGUUUCAGCGCAGGGCGGGUGGAGUCCUCGUAGCGAGCCACCUUCAAUCAUUUUUGGAAGUCUCGUACCGGGUGCUGAGACAUCUUGCGCAGCCGUGAAGCGCUGCCUUCUGCGGGGCUUGCCUUCUGGCCAUGCCCUUCUUCUCUCCCUUGCACCUGUACCUCUUGGUCUUUGAAUAAAGCCUGAGUAGGAAG
modifications: Cap1
B2: Human EPO mmRNA (nucleic acid, listed as Homo sapiens)
sense: GGGAAAUAAGAGAGAAAAGAAGAGUAAGAAGAAAUAUAAGAGCCACCAUGGGAGUGCACGAGUGUCCCGCGUGGUUGUGGUUGCUGCUGUCGCUCUUGAGCCUCCCACUGGGACUGCCUGUGCUGGGGGCACCACCCAGAUUGAUCUGCGACUCACGGGUACUUGAGAGGUACCUUCUUGAAGCCAAAGAAGCCGAAAACAUCACAACCGGAUGCGCCGAGCACUGCUCCCUCAAUGAGAACAUUACUGUACCGGAUACAAAGGUCAAUUUCUAUGCAUGGAAGAGAAUGGAAGUAGGACAGCAGGCCGUCGAAGUGUGGCAGGGGCUCGCGCUUUUGUCGGAGGCGGUGUUGCGGGGUCAGGCCCUCCUCGUCAACUCAUCACAGCCGUGGGAGCCCCUCCAACUUCAUGUCGAUAAAGCGGUGUCGGGGCUCCGCAGCUUGACGACGUUGCUUCGGGCUCUGGGCGCACAAAAGGAGGCUAUUUCGCCGCCUGACGCGGCCUCCGCGGCACCCCUCCGAACGAUCACCGCGGACACGUUUAGGAAGCUUUUUAGAGUGUACAGCAAUUUCCUCCGCGGAAAGCUGAAAUUGUAUACUGGUGAAGCGUGUAGGACAGGGGAUCGCUGAUAAGCUGCCUUCUGCGGGGCUUGCCUUCUGGCCAUGCCCUUCUUCUCUCCCUUGCACCUGUACCUCUUGGUCUUUGAAUAAAGCCUGAGUAGGAAG
modifications: 5' Cap1, polyA tail ~160 nt

What was measured:
[1] = Stability of modified RNA on storage (gel electrophoresis); type: physicochemical
Procedure: Stability experiments were conducted to obtain a better understanding of storage conditions to retain the integrity of modified RNA. […] 40° C. 37° C. 25° C. 4° C. or −20° C. After the mRNA had been stored for 0 hours, 2 hours, 6 hours, 24 hours, 48 hours, 5 days and 14 days, the mRNA was analyzed by gel electrophoresis using a Bio-Rad EXPERION™ system. The modified, unmodified and lipoplexed G-CSF mRNA was also stored in RNASTABLE® (Biomatrica, Inc. San Diego, Calif.) at 40° C. or water at −80° C. or 40° C. for 35 days before being analyzed by gel electrophoresis.
mRNA samples stored at 4° C. 25° C. and 37° C. were stored in 1×TE buffer or the formulation buffer (150 mM sodium chloride, 2 mM calcium chloride, 2 mM phosphate, 0.5 mM EDTA at a pH of 6.5). The mRNA stored at 4° C. was stable to at least 60 days in both the TE and formulation buffer. At 25° C. the mRNA in formulation buffer was stable out to 14 days and the TE buffer was stable out to at least 6 days. Storage of mRNA in the formulation buffer at 37° C. was stable to 6 days compared to the TE buffer which was stable only until 4 days.

[2] = Split dose study IM, serum human EPO, product per unit drug and dose splitting factor; type: in vivo, mice
Procedure: The dosing vehicle (F. buffer) consisted of 150 mM NaCl, 2 mM CaCl2, 2 mM Na^+-phosphate (1.4 mM monobasic sodium phosphate; 0.6 mM dibasic sodium phosphate), and 0.5 mM EDTA, pH 6.5. The pH was adjusted using sodium hydroxide and the final solution was filter sterilized.
Animals (n=5) were injected IM (intramuscular) for the single unit dose of 100 ug. For multi-dosing, two schedules were used, 3 doses of 100 ug and 6 doses of 100 ug. For the split dosing scheme, two schedules were used, 3 doses at 33.3 ug and 6 doses of 16.5 ug mmRNA. Control dosing involved use of buffer only at 6 doses. […] Blood and muscle tissue were evaluated 13 hrs post injection.
Human EPO protein was measured in mouse serum 13 h post I.M. single, multi- or split dosing of the EPO mmRNA in buffer. Seven groups of mice (n=5 mice per group) were treated and evaluated.
The splitting factor is defined as the product per unit drug divided by the single dose product per unit drug (PUD) For example for treatment group 2 the value 0.28 or product (EPO) per unit drug (mmRNA) is divided by the single dose product per unit drug of 0.14. The result is 2. Likewise, for treatment group 4, the value 1.1 or product (EPO) per unit drug (mmRNA) is divided by the single dose product per unit drug of 0.14. The result is 7.9. Consequently, the dose splitting factor (DSF) may be used as an indicator of the efficacy of a split dose regimen. For any single administration of a total daily dose, the DSF should be equal to 1. Therefore any DSF greater than this value in a split dose regimen is an indication of increased efficacy.

[3] = group 1: 1 × 100 ug, total dose 100 ug
[4] = group 2: 3 × 100 ug, total dose 300 ug
[5] = group 3: 3 × 33.3 ug, total dose 600 ug
[6] = group 4: 3 × 33.3 ug, total dose 100 ug
[7] = group 5: 6 × 16.5 ug, total dose 100 ug

Row | Molecule | stable out to ([1]; stored at 25° C.) | stable out to ([1]; stored at 37° C.) | stable out to ([1]; stored at 50° C.) | Dose Splitting Factor [2, 3] | Polypeptide per unit drug [2, 3] | Dose Splitting Factor [2, 4] | Polypeptide per unit drug [2, 4] | Dose Splitting Factor [2, 5] | Polypeptide per unit drug [2, 5] | Dose Splitting Factor [2, 6] | Polypeptide per unit drug [2, 6] | Dose Splitting Factor [2, 7] | Polypeptide per unit drug [2, 7]
1 | B1 | 48 h | 6 h | 2 h | – | – | – | – | – | – | – | – | – | –
2 | B2 | – | – | – | 1 | 0.14 pmol/µg | 2 | 0.28 pmol/µg | 3.3 | 0.46 pmol/µg | 7.9 | 1.1 pmol/µg | 9.3 | 1.3 pmol/µg
